# From IntAct's records for PubMed 15105431
# B1: T-cell surface antigen CD2 (Homo sapiens), P06729 (parent)
# chain: MSFPCKFVASFLLIFNVSSKGAVSKEITNALETWGALGQDINLDIPSFQMSDDIDDIKWEKTSDKKKIAQFRKEKETFKEKDTYKLFKNGTLKIKHLKTDDQDIYKVSIYDTKGKNVLEKIFDLKIQERVSKPKISWTCINTTLTCEVMNGTDPELNLYQDGKHLKLSQRVITHKWTTSLSAKFKCTAGNKVSKESSVEPVSCPEKGLDIYLIIGICGGGSLLMVFVALLVFYITKRKKQRSRRNDEELETRAHRVATEERGRKPHQIPASTPQNPATSQHPPPPPGHRSQAPSHRPPPPGHRVQHQPQKRPPAPSGTQVHQQKGPPLPRPRVQPKPPHGAAENSLSPSSN
# partner: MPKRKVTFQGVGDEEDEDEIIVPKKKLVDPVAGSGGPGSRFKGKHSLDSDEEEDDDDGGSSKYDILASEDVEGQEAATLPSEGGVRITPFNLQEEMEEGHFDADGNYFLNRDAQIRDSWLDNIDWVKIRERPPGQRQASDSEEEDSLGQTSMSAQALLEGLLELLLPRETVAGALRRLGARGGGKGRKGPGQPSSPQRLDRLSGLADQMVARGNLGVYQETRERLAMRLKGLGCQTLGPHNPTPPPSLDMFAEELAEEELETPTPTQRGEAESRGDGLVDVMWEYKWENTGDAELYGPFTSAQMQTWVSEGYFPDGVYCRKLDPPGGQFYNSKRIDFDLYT
# Variants of: B1
# Conditions: with cd2b2_human CD2BP2, O95400
row,Variant,effect of a mutation on the interaction
1,MSFPCKFVASFLLIFNVSSKGAVSKEITNALETWGALGQDINLDIPSFQMSDDIDDIKWEKTSDKKKIAQFRKEKETFKEKDTYKLFKNGTLKIKHLKTDDQDIYKVSIYDTKGKNVLEKIFDLKIQERVSKPKISWTCINTTLTCEVMNGTDPELNLYQDGKHLKLSQRVITHKWTTSLSAKFKCTAGNKVSKESSVEPVSCPEKGLDIYLIIGICGGGSLLMVFVALLVFYITKRKKQRSRRNDEELETRAHRVATEERGRKPHQIPASTPQNPATSQHPPPPPGHRSQAPSHRPPPPFHRVQHQPQKRPPAPSGTQVHQQKGPPLPRPRVQPKPPHGAAENSLSPSSN [G301F],decreasing interaction strength
2,MSFPCKFVASFLLIFNVSSKGAVSKEITNALETWGALGQDINLDIPSFQMSDDIDDIKWEKTSDKKKIAQFRKEKETFKEKDTYKLFKNGTLKIKHLKTDDQDIYKVSIYDTKGKNVLEKIFDLKIQERVSKPKISWTCINTTLTCEVMNGTDPELNLYQDGKHLKLSQRVITHKWTTSLSAKFKCTAGNKVSKESSVEPVSCPEKGLDIYLIIGICGGGSLLMVFVALLVFYITKRKKQRSRRNDEELETRAHRVATEERGRKPHQIPASTPQNPATSQHPPPPPGHRSQAPSHRPPPPTHRVQHQPQKRPPAPSGTQVHQQKGPPLPRPRVQPKPPHGAAENSLSPSSN [G301T],disrupting interaction strength
3,MSFPCKFVASFLLIFNVSSKGAVSKEITNALETWGALGQDINLDIPSFQMSDDIDDIKWEKTSDKKKIAQFRKEKETFKEKDTYKLFKNGTLKIKHLKTDDQDIYKVSIYDTKGKNVLEKIFDLKIQERVSKPKISWTCINTTLTCEVMNGTDPELNLYQDGKHLKLSQRVITHKWTTSLSAKFKCTAGNKVSKESSVEPVSCPEKGLDIYLIIGICGGGSLLMVFVALLVFYITKRKKQRSRRNDEELETRAHRVATEERGRKPHQIPASTPQNPATSQHPPPPPGHRSQAPSHRPPPPPHRVQHQPQKRPPAPSGTQVHQQKGPPLPRPRVQPKPPHGAAENSLSPSSN [G301P],decreasing interaction strength
4,MSFPCKFVASFLLIFNVSSKGAVSKEITNALETWGALGQDINLDIPSFQMSDDIDDIKWEKTSDKKKIAQFRKEKETFKEKDTYKLFKNGTLKIKHLKTDDQDIYKVSIYDTKGKNVLEKIFDLKIQERVSKPKISWTCINTTLTCEVMNGTDPELNLYQDGKHLKLSQRVITHKWTTSLSAKFKCTAGNKVSKESSVEPVSCPEKGLDIYLIIGICGGGSLLMVFVALLVFYITKRKKQRSRRNDEELETRAHRVATEERGRKPHQIPASTPQNPATSQHPPPPPGHRSQAPSHRPPPPMHRVQHQPQKRPPAPSGTQVHQQKGPPLPRPRVQPKPPHGAAENSLSPSSN [G301M],disrupting interaction strength
5,MSFPCKFVASFLLIFNVSSKGAVSKEITNALETWGALGQDINLDIPSFQMSDDIDDIKWEKTSDKKKIAQFRKEKETFKEKDTYKLFKNGTLKIKHLKTDDQDIYKVSIYDTKGKNVLEKIFDLKIQERVSKPKISWTCINTTLTCEVMNGTDPELNLYQDGKHLKLSQRVITHKWTTSLSAKFKCTAGNKVSKESSVEPVSCPEKGLDIYLIIGICGGGSLLMVFVALLVFYITKRKKQRSRRNDEELETRAHRVATEERGRKPHQIPASTPQNPATSQHPPPPPGHRSQAPSHRPPPPQHRVQHQPQKRPPAPSGTQVHQQKGPPLPRPRVQPKPPHGAAENSLSPSSN [G301Q],decreasing interaction strength
6,MSFPCKFVASFLLIFNVSSKGAVSKEITNALETWGALGQDINLDIPSFQMSDDIDDIKWEKTSDKKKIAQFRKEKETFKEKDTYKLFKNGTLKIKHLKTDDQDIYKVSIYDTKGKNVLEKIFDLKIQERVSKPKISWTCINTTLTCEVMNGTDPELNLYQDGKHLKLSQRVITHKWTTSLSAKFKCTAGNKVSKESSVEPVSCPEKGLDIYLIIGICGGGSLLMVFVALLVFYITKRKKQRSRRNDEELETRAHRVATEERGRKPHQIPASTPQNPATSQHPPPPPGHRSQAPSHRPPPPGHAVQHQPQKRPPAPSGTQVHQQKGPPLPRPRVQPKPPHGAAENSLSPSSN [R303A],disrupting interaction strength
7,MSFPCKFVASFLLIFNVSSKGAVSKEITNALETWGALGQDINLDIPSFQMSDDIDDIKWEKTSDKKKIAQFRKEKETFKEKDTYKLFKNGTLKIKHLKTDDQDIYKVSIYDTKGKNVLEKIFDLKIQERVSKPKISWTCINTTLTCEVMNGTDPELNLYQDGKHLKLSQRVITHKWTTSLSAKFKCTAGNKVSKESSVEPVSCPEKGLDIYLIIGICGGGSLLMVFVALLVFYITKRKKQRSRRNDEELETRAHRVATEERGRKPHQIPASTPQNPATSQHPPPPPGHRSQAPSHRPPPPGDRVQHQPQKRPPAPSGTQVHQQKGPPLPRPRVQPKPPHGAAENSLSPSSN [H302D],decreasing interaction strength

# Other lines, results leading:
row,effect of a mutation on the interaction,Variant
1,disrupting interaction strength,MSFPCKFVASFLLIFNVSSKGAVSKEITNALETWGALGQDINLDIPSFQMSDDIDDIKWEKTSDKKKIAQFRKEKETFKEKDTYKLFKNGTLKIKHLKTDDQDIYKVSIYDTKGKNVLEKIFDLKIQERVSKPKISWTCINTTLTCEVMNGTDPELNLYQDGKHLKLSQRVITHKWTTSLSAKFKCTAGNKVSKESSVEPVSCPEKGLDIYLIIGICGGGSLLMVFVALLVFYITKRKKQRSRRNDEELETRAHRVATEERGRKPHQIPASTPQNPATSQHPPPPPGHRSQAPSHRPPPPVHRVQHQPQKRPPAPSGTQVHQQKGPPLPRPRVQPKPPHGAAENSLSPSSN [G301V]
2,decreasing interaction strength,MSFPCKFVASFLLIFNVSSKGAVSKEITNALETWGALGQDINLDIPSFQMSDDIDDIKWEKTSDKKKIAQFRKEKETFKEKDTYKLFKNGTLKIKHLKTDDQDIYKVSIYDTKGKNVLEKIFDLKIQERVSKPKISWTCINTTLTCEVMNGTDPELNLYQDGKHLKLSQRVITHKWTTSLSAKFKCTAGNKVSKESSVEPVSCPEKGLDIYLIIGICGGGSLLMVFVALLVFYITKRKKQRSRRNDEELETRAHRVATEERGRKPHQIPASTPQNPATSQHPPPPPGHRSQAPSHRPPPPKHRVQHQPQKRPPAPSGTQVHQQKGPPLPRPRVQPKPPHGAAENSLSPSSN [G301K]
3,decreasing interaction strength,MSFPCKFVASFLLIFNVSSKGAVSKEITNALETWGALGQDINLDIPSFQMSDDIDDIKWEKTSDKKKIAQFRKEKETFKEKDTYKLFKNGTLKIKHLKTDDQDIYKVSIYDTKGKNVLEKIFDLKIQERVSKPKISWTCINTTLTCEVMNGTDPELNLYQDGKHLKLSQRVITHKWTTSLSAKFKCTAGNKVSKESSVEPVSCPEKGLDIYLIIGICGGGSLLMVFVALLVFYITKRKKQRSRRNDEELETRAHRVATEERGRKPHQIPASTPQNPATSQHPPPPPGHRSQAPSHRPPPPNHRVQHQPQKRPPAPSGTQVHQQKGPPLPRPRVQPKPPHGAAENSLSPSSN [G301N]
4,disrupting interaction strength,MSFPCKFVASFLLIFNVSSKGAVSKEITNALETWGALGQDINLDIPSFQMSDDIDDIKWEKTSDKKKIAQFRKEKETFKEKDTYKLFKNGTLKIKHLKTDDQDIYKVSIYDTKGKNVLEKIFDLKIQERVSKPKISWTCINTTLTCEVMNGTDPELNLYQDGKHLKLSQRVITHKWTTSLSAKFKCTAGNKVSKESSVEPVSCPEKGLDIYLIIGICGGGSLLMVFVALLVFYITKRKKQRSRRNDEELETRAHRVATEERGRKPHQIPASTPQNPATSQHPPPPPGHRSQAPSHRPPPPAHRVQHQPQKRPPAPSGTQVHQQKGPPLPRPRVQPKPPHGAAENSLSPSSN [G301A]
5,decreasing interaction strength,MSFPCKFVASFLLIFNVSSKGAVSKEITNALETWGALGQDINLDIPSFQMSDDIDDIKWEKTSDKKKIAQFRKEKETFKEKDTYKLFKNGTLKIKHLKTDDQDIYKVSIYDTKGKNVLEKIFDLKIQERVSKPKISWTCINTTLTCEVMNGTDPELNLYQDGKHLKLSQRVITHKWTTSLSAKFKCTAGNKVSKESSVEPVSCPEKGLDIYLIIGICGGGSLLMVFVALLVFYITKRKKQRSRRNDEELETRAHRVATEERGRKPHQIPASTPQNPATSQHPPPPPGHRSQAPSHRPPPPYHRVQHQPQKRPPAPSGTQVHQQKGPPLPRPRVQPKPPHGAAENSLSPSSN [G301Y]
6,decreasing interaction strength,MSFPCKFVASFLLIFNVSSKGAVSKEITNALETWGALGQDINLDIPSFQMSDDIDDIKWEKTSDKKKIAQFRKEKETFKEKDTYKLFKNGTLKIKHLKTDDQDIYKVSIYDTKGKNVLEKIFDLKIQERVSKPKISWTCINTTLTCEVMNGTDPELNLYQDGKHLKLSQRVITHKWTTSLSAKFKCTAGNKVSKESSVEPVSCPEKGLDIYLIIGICGGGSLLMVFVALLVFYITKRKKQRSRRNDEELETRAHRVATEERGRKPHQIPASTPQNPATSQHPPPPPGHRSQAPSHRPPPPHHRVQHQPQKRPPAPSGTQVHQQKGPPLPRPRVQPKPPHGAAENSLSPSSN [G301H]
7,decreasing interaction strength,MSFPCKFVASFLLIFNVSSKGAVSKEITNALETWGALGQDINLDIPSFQMSDDIDDIKWEKTSDKKKIAQFRKEKETFKEKDTYKLFKNGTLKIKHLKTDDQDIYKVSIYDTKGKNVLEKIFDLKIQERVSKPKISWTCINTTLTCEVMNGTDPELNLYQDGKHLKLSQRVITHKWTTSLSAKFKCTAGNKVSKESSVEPVSCPEKGLDIYLIIGICGGGSLLMVFVALLVFYITKRKKQRSRRNDEELETRAHRVATEERGRKPHQIPASTPQNPATSQHPPPPPGHRSQAPSHRPPPPSHRVQHQPQKRPPAPSGTQVHQQKGPPLPRPRVQPKPPHGAAENSLSPSSN [G301S]
8,decreasing interaction strength,MSFPCKFVASFLLIFNVSSKGAVSKEITNALETWGALGQDINLDIPSFQMSDDIDDIKWEKTSDKKKIAQFRKEKETFKEKDTYKLFKNGTLKIKHLKTDDQDIYKVSIYDTKGKNVLEKIFDLKIQERVSKPKISWTCINTTLTCEVMNGTDPELNLYQDGKHLKLSQRVITHKWTTSLSAKFKCTAGNKVSKESSVEPVSCPEKGLDIYLIIGICGGGSLLMVFVALLVFYITKRKKQRSRRNDEELETRAHRVATEERGRKPHQIPASTPQNPATSQHPPPPPGHRSQAPSHRPPPPIHRVQHQPQKRPPAPSGTQVHQQKGPPLPRPRVQPKPPHGAAENSLSPSSN [G301I]
9,decreasing interaction strength,MSFPCKFVASFLLIFNVSSKGAVSKEITNALETWGALGQDINLDIPSFQMSDDIDDIKWEKTSDKKKIAQFRKEKETFKEKDTYKLFKNGTLKIKHLKTDDQDIYKVSIYDTKGKNVLEKIFDLKIQERVSKPKISWTCINTTLTCEVMNGTDPELNLYQDGKHLKLSQRVITHKWTTSLSAKFKCTAGNKVSKESSVEPVSCPEKGLDIYLIIGICGGGSLLMVFVALLVFYITKRKKQRSRRNDEELETRAHRVATEERGRKPHQIPASTPQNPATSQHPPPPPGHRSQAPSHRPPPPGERVQHQPQKRPPAPSGTQVHQQKGPPLPRPRVQPKPPHGAAENSLSPSSN [H302E]
